Test results as given in patent publication US20230272055A1 (Incyte, published 2023).

T1: human mutCALR on BaF3 cells stably expressing human MPL and human mutCALR (MPL-mutCALR cells) (human)
T1 construct: also called mutant calreticulin
T1 chain: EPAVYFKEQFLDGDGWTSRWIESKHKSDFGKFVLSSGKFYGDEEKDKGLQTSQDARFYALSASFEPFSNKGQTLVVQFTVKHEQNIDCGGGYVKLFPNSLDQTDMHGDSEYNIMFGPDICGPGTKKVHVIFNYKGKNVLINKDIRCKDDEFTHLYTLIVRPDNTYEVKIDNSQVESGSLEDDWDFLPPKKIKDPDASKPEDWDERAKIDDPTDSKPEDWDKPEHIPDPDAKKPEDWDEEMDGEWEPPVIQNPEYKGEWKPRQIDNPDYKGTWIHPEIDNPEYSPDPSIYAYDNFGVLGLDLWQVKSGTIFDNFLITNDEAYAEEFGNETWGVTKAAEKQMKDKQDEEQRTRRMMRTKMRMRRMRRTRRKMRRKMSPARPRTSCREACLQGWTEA


Molecular target: T1, human mutCALR on BaF3 cells stably …
Experiment: flow cytometry, BaF3 MPL-mutCALR cells
Method: On the day of the assay, cells were washed and resuspended in assay buffer. Approximately 200,000 cells/well were added to 96-well plates and stained with the indicated concentration of antibodies for 30 minutes on ice. Cells were then washed and stained with goat anti-human secondary conjugated to R-phycoerythrin (R-PE) (Jackson Immuno Research Laboratories) for 30 minutes on ice. The cells were then washed and analyzed by flow cytometry.

Row | Binder | MPL-mutCALR AUC | EC50
1 | anti-mutCALR antibody clone 124 (antibody, human IgG1, lambda, N297A) heavy: not shown light: SYELTQPPSVSVAPGKTARITCGGDNIGSKSVHWYQQKPGQAPVLVVYDDSDRPSGIPERFSGSNSGNTATLTINRVEAGDEADYYCQVWDSSNDLLIFGGGTKLTVLGQPKAAPSVTLFPPSSEELQANKATLVCLISDFYPGAVTVAWKADSSPVKAGVETTTPSKQSNNKYAASSYLSLTPEQWKSHRSYSCQVTHEGSTVEKTVAPTECS | 93700 | 
2 | anti-mutCALR antibody clone 125 (antibody, human IgG1, lambda, N297A, V domains shown) VH: EVQLVQSGAEVKKPGASVKVSCKVSGYTLTELSMQWVRQAPGKGLEWMGGFDPDAGETMYAEKFQGRLTVTEDTSTDTVYMELRSLTSEDTALYFCATSPGYDFFDYWGQGTLVTVSS VL: SYELTQPPSVSVAPGKTARITCGGDNIGSKSVHWYQQKPGQAPVLVVYDDSDRPSGIPERFSGSNSGNTATLTINRVEAGDEADYYCQVWDSSNDLLIFGGGTKLTVLG | 62700 | 2.1 ng/mL
3 | anti-mutCALR antibody clone 127 (antibody, human IgG1, lambda, N297A, V domains shown) VH: EVQLVQSGAEVKKPGASVKVSCKVSGYTLTELSMQWVRQAPGKGLEWMGGFDPDEGETMYAEKFQGRLTVTEDTSTDTVYMELRSLTSEDTALYFCATSPGYDFFDYWGQGTLVTVSS VL: SYELTQPPSVSVAPGKTARITCGGDNIGSKSVHWYQQKPGQAPVLVVYDDSDRPSGIPERFSGSNSGNTATLTINRVEAGDEADYYCQVWDSSNDLLIFGGGTKLTVLG | 73500 | 1.4 ng/mL
4 | anti-mutCALR antibody clone 128 (antibody, human IgG1, lambda, N297A, V domains shown) VH: EVQLVQSGAEVKKPGASVKVSCKVSGYTLTELSMQWVRQAPGKGLEWMGGFDPDDAETMYAEKFQGRLTVTEDTSTDTVYMELRSLTSEDTALYFCATSPGYDFFDYWGQGTLVTVSS VL: SYELTQPPSVSVAPGKTARITCGGDNIGSKSVHWYQQKPGQAPVLVVYDDSDRPSGIPERFSGSNSGNTATLTINRVEAGDEADYYCQVWDSSNDLLIFGGGTKLTVLG | 88900 | 
5 | anti-mutCALR antibody clone 130 (antibody, human IgG1, lambda, N297A, V domains shown) VH: EVQLVQSGAEVKKPGASVKVSCKVSGYTLTELSMQWVRQAPGKGLEWMGGFDPDAGETMYAEKFQGRLTVTEDTSTDTVYMELSSLRSEDTAVYFCATSPGYDFFDYWGQGTLVTVSS VL: SYELTQPPSVSVAPGKTARITCGGDNIGSKSVHWYQQKPGQAPVLVVYDDSDRPSGIPERFSGSNSGNTATLTINRVEAGDEADYYCQVWDSSNDLLIFGGGTKLTVLG | 58300 | 1.7 ng/mL
6 | anti-mutCALR antibody clone 131 (antibody, human IgG1, lambda, N297A, V domains shown) VH: EVQLVQSGAEVKKPGASVKVSCKVSGYTLTELSMQWVRQAPGKGLEWMGGFDPDSGETMYAEKFQGRLTVTEDTSTDTVYMELSSLRSEDTAVYFCATSPGYDFFDYWGQGTLVTVSS VL: SYELTQPPSVSVAPGKTARITCGGDNIGSKSVHWYQQKPGQAPVLVVYDDSDRPSGIPERFSGSNSGNTATLTINRVEAGDEADYYCQVWDSSNDLLIFGGGTKLTVLG | 58300 | 1.1 ng/mL
7 | anti-mutCALR antibody clone 132 (antibody, human IgG1, lambda, N297A, V domains shown) VH: EVQLVQSGAEVKKPGASVKVSCKVSGYTLTELSMQWVRQAPGKGLEWMGGFDPDEGETMYAEKFQGRLTVTEDTSTDTVYMELSSLRSEDTAVYFCATSPGYDFFDYWGQGTLVTVSS VL: SYELTQPPSVSVAPGKTARITCGGDNIGSKSVHWYQQKPGQAPVLVVYDDSDRPSGIPERFSGSNSGNTATLTINRVEAGDEADYYCQVWDSSNDLLIFGGGTKLTVLG | 73400 | 0.4 ng/mL
8 | anti-mutCALR antibody clone 133 (antibody, human IgG1, lambda, N297A, V domains shown) VH: EVQLVQSGAEVKKPGASVKVSCKVSGYTLTELSMQWVRQAPGKGLEWMGGFDPDDAETMYAEKFQGRLTVTEDTSTDTVYMELSSLRSEDTAVYFCATSPGYDFFDYWGQGTLVTVSS VL: SYELTQPPSVSVAPGKTARITCGGDNIGSKSVHWYQQKPGQAPVLVVYDDSDRPSGIPERFSGSNSGNTATLTINRVEAGDEADYYCQVWDSSNDLLIFGGGTKLTVLG | 85200 | 1.7 ng/mL
9 | anti-mutCALR antibody clone 134 (antibody, human IgG1, lambda, N297A) heavy: not shown light: SYVLTQPPSVSVAPGKTARITCGGDNIGSKSVHWYQQKPGQAPVLVVYDDSDRPSGIPERFSGSNSGNTATLTISRVEAGDEADYYCQVWDSSNDLLIFGGGTKLTVLGQPKAAPSVTLFPPSSEELQANKATLVCLISDFYPGAVTVAWKADSSPVKAGVETTTPSKQSNNKYAASSYLSLTPEQWKSHRSYSCQVTHEGSTVEKTVAPTECS | 96700 | 
10 | anti-mutCALR antibody clone 135 (antibody, human IgG1, lambda, N297A, V domains shown) VH: EVQLVQSGAEVKKPGASVKVSCKVSGYTLTELSMQWVRQAPGKGLEWMGGFDPDAGETMYAEKFQGRLTVTEDTSTDTVYMELRSLTSEDTALYFCATSPGYDFFDYWGQGTLVTVSS VL: SYVLTQPPSVSVAPGKTARITCGGDNIGSKSVHWYQQKPGQAPVLVVYDDSDRPSGIPERFSGSNSGNTATLTISRVEAGDEADYYCQVWDSSNDLLIFGGGTKLTVLG | 56300 | 3.2 ng/mL
11 | anti-mutCALR antibody clone 136 (antibody, human IgG1, lambda, N297A, V domains shown) VH: EVQLVQSGAEVKKPGASVKVSCKVSGYTLTELSMQWVRQAPGKGLEWMGGFDPDSGETMYAEKFQGRLTVTEDTSTDTVYMELRSLTSEDTALYFCATSPGYDFFDYWGQGTLVTVSS VL: SYVLTQPPSVSVAPGKTARITCGGDNIGSKSVHWYQQKPGQAPVLVVYDDSDRPSGIPERFSGSNSGNTATLTISRVEAGDEADYYCQVWDSSNDLLIFGGGTKLTVLG | 65000 | 2 ng/mL
12 | anti-mutCALR antibody clone 137 (antibody, human IgG1, lambda, N297A, V domains shown) VH: EVQLVQSGAEVKKPGASVKVSCKVSGYTLTELSMQWVRQAPGKGLEWMGGFDPDEGETMYAEKFQGRLTVTEDTSTDTVYMELRSLTSEDTALYFCATSPGYDFFDYWGQGTLVTVSS VL: SYVLTQPPSVSVAPGKTARITCGGDNIGSKSVHWYQQKPGQAPVLVVYDDSDRPSGIPERFSGSNSGNTATLTISRVEAGDEADYYCQVWDSSNDLLIFGGGTKLTVLG | 69700 | 1.7 ng/mL
13 | anti-mutCALR antibody clone 138 (antibody, human IgG1, lambda, N297A, V domains shown) VH: EVQLVQSGAEVKKPGASVKVSCKVSGYTLTELSMQWVRQAPGKGLEWMGGFDPDDAETMYAEKFQGRLTVTEDTSTDTVYMELRSLTSEDTALYFCATSPGYDFFDYWGQGTLVTVSS VL: SYVLTQPPSVSVAPGKTARITCGGDNIGSKSVHWYQQKPGQAPVLVVYDDSDRPSGIPERFSGSNSGNTATLTISRVEAGDEADYYCQVWDSSNDLLIFGGGTKLTVLG | 85800 | 2.6 ng/mL
14 | anti-mutCALR antibody clone 140 (antibody, human IgG1, lambda, N297A, V domains shown) VH: EVQLVQSGAEVKKPGASVKVSCKVSGYTLTELSMQWVRQAPGKGLEWMGGFDPDAGETMYAEKFQGRLTVTEDTSTDTVYMELSSLRSEDTAVYFCATSPGYDFFDYWGQGTLVTVSS VL: SYVLTQPPSVSVAPGKTARITCGGDNIGSKSVHWYQQKPGQAPVLVVYDDSDRPSGIPERFSGSNSGNTATLTISRVEAGDEADYYCQVWDSSNDLLIFGGGTKLTVLG | 54700 | 4.3 ng/mL
15 | anti-mutCALR antibody clone 141 (antibody, human IgG1, lambda, N297A, V domains shown) VH: EVQLVQSGAEVKKPGASVKVSCKVSGYTLTELSMQWVRQAPGKGLEWMGGFDPDSGETMYAEKFQGRLTVTEDTSTDTVYMELSSLRSEDTAVYFCATSPGYDFFDYWGQGTLVTVSS VL: SYVLTQPPSVSVAPGKTARITCGGDNIGSKSVHWYQQKPGQAPVLVVYDDSDRPSGIPERFSGSNSGNTATLTISRVEAGDEADYYCQVWDSSNDLLIFGGGTKLTVLG | 60800 | 6.3 ng/mL
16 | anti-mutCALR antibody clone 142 (antibody, human IgG1, lambda, N297A, V domains shown) VH: EVQLVQSGAEVKKPGASVKVSCKVSGYTLTELSMQWVRQAPGKGLEWMGGFDPDEGETMYAEKFQGRLTVTEDTSTDTVYMELSSLRSEDTAVYFCATSPGYDFFDYWGQGTLVTVSS VL: SYVLTQPPSVSVAPGKTARITCGGDNIGSKSVHWYQQKPGQAPVLVVYDDSDRPSGIPERFSGSNSGNTATLTISRVEAGDEADYYCQVWDSSNDLLIFGGGTKLTVLG | 71100 | 2.3 ng/mL
17 | anti-mutCALR antibody clone 143 (antibody, human IgG1, lambda, N297A, V domains shown) VH: EVQLVQSGAEVKKPGASVKVSCKVSGYTLTELSMQWVRQAPGKGLEWMGGFDPDDAETMYAEKFQGRLTVTEDTSTDTVYMELSSLRSEDTAVYFCATSPGYDFFDYWGQGTLVTVSS VL: SYVLTQPPSVSVAPGKTARITCGGDNIGSKSVHWYQQKPGQAPVLVVYDDSDRPSGIPERFSGSNSGNTATLTISRVEAGDEADYYCQVWDSSNDLLIFGGGTKLTVLG | 69900 | 7.9 ng/mL
18 | anti-mutCALR antibody clone 170 (antibody, human IgG1, lambda, N297A) heavy: not shown light: SYVLTQPPSVSVAPGQTARITCGGSDIGDEIVHWYQQKPGQAPVLVVYDDSDRPSGIPERFSGSNSGNTATLTISRAQAGDEADYYCQVWDSSSDHLIFGGGTKLTVLGQPKAAPSVTLFPPSSEELQANKATLVCLISDFYPGAVTVAWKADSSPVKAGVETTTPSKQSNNKYAASSYLSLTPEQWKSHRSYSCQVTHEGSTVEKTVAPTECS | 76400 | 23.2 ng/mL
19 | anti-mutCALR antibody clone 171 (antibody, human IgG1, lambda, N297A, V domains shown) VH: EVQLVQSGAEVKKPGASVKVSCKVSGYTLTELSMQWVRQAPGKGLEWMGGFDPDAGETMYAEKFQGRLTVTEDTSTDTVYMELRSLTSEDTALYFCATSPGYDFFDYWGQGTLVTVSS VL: SYVLTQPPSVSVAPGQTARITCGGSDIGDEIVHWYQQKPGQAPVLVVYDDSDRPSGIPERFSGSNSGNTATLTISRAQAGDEADYYCQVWDSSSDHLIFGGGTKLTVLG | 50300 | 21.7 ng/mL
